{"source": "patent US20030166870A1", "key": {"[1]": {"target": "FLAG-tagged human CCR5 expressed on transfected L1.2 murine pre-B lymphoma cells (human) (UniProt P51681)"}, "[2]": {"target": "human CCR5 (no tag stated) (human) (UniProt P51681)", "assay": "10 µg/ml mAb; 125I-MIP-1α binding to activated IL-2 maintained T cells (CD3 blasts); competitor MIP-1α"}, "[3]": {"target": "FLAG-tagged human CCR5 expressed on transfected L1.2 murine pre-B lymphoma cells (human) (UniProt P51681)", "assay": "inhibition of 0.1 nM 125I-RANTES binding to CCR5 L1.2 transfectants by decreasing amounts of mAb; competitor RANTES"}, "[4]": {"target": "FLAG-tagged human CCR5 expressed on transfected L1.2 murine pre-B lymphoma cells (human) (UniProt P51681)", "assay": "inhibition of 0.1 nM 125I-MIP-1β binding to CCR5 L1.2 transfectants by decreasing amounts of mAb; competitor MIP-1β"}, "[5]": {"target": "FLAG-tagged human CCR5 expressed on transfected L1.2 murine pre-B lymphoma cells (human) (UniProt P51681)", "assay": "inhibition of 0.1 nM 125I-MIP-1α binding to CCR5 L1.2 transfectants by decreasing amounts of mAb; competitor MIP-1α"}, "[6]": {"target": "human CCR5 (no tag stated) (human) (UniProt P51681)", "assay": "10 µg/ml mAb; 125I-RANTES binding to activated IL-2 maintained T cells (CD3 blasts); competitor RANTES"}, "[7]": {"target": "FLAG-tagged human CCR5 expressed on transfected L1.2 murine pre-B lymphoma cells (human) (UniProt P51681)", "assay": "cell-based or functional assay"}, "[8]": {"target": "human CCR5 (no tag stated) (human) (UniProt P51681)", "assay": "cell-based or functional assay"}}, "note": "Read-outs that look alike come from different tables or passages of the source.", "data": [{"substance": "murine monoclonal antibody 2D7", "values": [{"measurement": "IC50", "setting": "[1]", "result": 0.01, "unit": "µg/mL"}, {"measurement": "concentration giving complete inhibition of 125I-gp120 binding", "setting": "[1]", "result": 50, "unit": "ng/mL"}, {"measurement": "percent inhibition of 125I-MIP-1α binding", "setting": "[2]", "result": 85, "unit": "%"}, {"measurement": "IC50", "setting": "[3]", "result": 0.058, "unit": "µg/mL"}, {"measurement": "IC50", "setting": "[4]", "result": 0.041, "unit": "µg/mL"}, {"measurement": "IC50", "setting": "[5]", "result": 0.023, "unit": "µg/mL"}, {"measurement": "percent inhibition of 125I-RANTES binding", "setting": "[6]", "result": 95, "unit": "%"}, {"measurement": "mAb concentration sufficient for complete inhibition of migration of CCR5 L1.2 cells to all of the ligands", "setting": "[7]", "result": 20, "unit": "µg/mL"}, {"measurement": "inhibition of RANTES and MIP-1α chemotactic responses by T cell lines", "setting": "[8]", "result": "60 to 80", "unit": "%"}, {"measurement": "inhibition of chemotactic response of anti-CD3/IL-2 stimulated T cells to MIP-1α", "setting": "[8]", "result": "60 to 80", "unit": "%"}]}]}
